Data as given in US20200164032A1 (WASHINGTON UNIVERSITY, published 2020).

Key:
murine CCL3 [1] = target: T1, murine CCL3 (mouse, UniProt P10855 24-92)
T1 sequence: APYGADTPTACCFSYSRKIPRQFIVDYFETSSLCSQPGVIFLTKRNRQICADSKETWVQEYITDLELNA

human CCL5 [2] = target: T2, human CCL5 (human, UniProt P13501 24-91); test: SPR, R17 on CM5 chip; t1/2
T2 construct: also called hCCL5
T2 sequence: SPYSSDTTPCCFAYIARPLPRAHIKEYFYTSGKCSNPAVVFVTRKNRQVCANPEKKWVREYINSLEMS

murine CCL5 [3] = target: T3, murine CCL5 (mouse, UniProt P30882 24-91); test: SPR, R17 on CM5 chip; t1/2
T3 construct: also called mCCL5

[4] = target: T4, murine XCL1 (lymphotactin) (mouse, UniProt P47993 22-114); test: SPR, R17 on CM5 chip; t1/2
T4 construct: also called mXCL1; lymphotactin (XCL1)
T4 sequence: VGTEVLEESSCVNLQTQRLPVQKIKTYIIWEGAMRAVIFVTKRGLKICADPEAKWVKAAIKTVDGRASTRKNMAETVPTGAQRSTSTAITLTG

murine CCL20 [5] = target: T5, murine CCL20 (mouse, UniProt O89093 28-97); test: SPR, R17 on CM5 chip; t1/2
T5 construct: also called mCCL20
T5 sequence: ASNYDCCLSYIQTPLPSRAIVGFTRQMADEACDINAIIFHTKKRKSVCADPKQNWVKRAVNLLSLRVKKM

murine CCL24 = target: T6, murine CCL24 (mouse, UniProt Q9JKC0 27-119); test: SPR, R17 on CM5 chip; t1/2
T6 construct: also called mCCL24
T6 sequence: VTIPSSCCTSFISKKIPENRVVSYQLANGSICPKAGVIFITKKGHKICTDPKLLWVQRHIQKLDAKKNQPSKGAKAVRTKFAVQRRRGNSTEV

murine CCL3 [6] = target: T1, murine CCL3; test: SPR, R17 on CM5 chip; t1/2
murine CCL2 [7] = target: T7, murine CCL2 (mouse, UniProt P10148 24-148); test: SPR, R17 on CM5 chip; t1/2
T7 construct: also called mCCL2

murine CCL12 [8] = target: T8, murine CCL12 (mouse, UniProt Q62401 23-104); test: SPR, R17 on CM5 chip; t1/2
T8 construct: also called mCCL12
T8 sequence: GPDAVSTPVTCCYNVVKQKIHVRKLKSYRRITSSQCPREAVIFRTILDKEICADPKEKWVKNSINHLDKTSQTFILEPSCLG

murine CCL8 [9] = target: T9, murine CCL8 (mouse, UniProt Q9Z121 24-97); test: SPR, R17 on CM5 chip; t1/2
T9 construct: also called mCCL8
T9 sequence: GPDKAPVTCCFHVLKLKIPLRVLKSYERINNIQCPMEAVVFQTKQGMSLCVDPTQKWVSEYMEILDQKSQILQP

CCL9 [10] = target: T10, CCL9 (UniProt P51670 22-122); test: SPR, R17 on CM5 chip; t1/2
T10 sequence: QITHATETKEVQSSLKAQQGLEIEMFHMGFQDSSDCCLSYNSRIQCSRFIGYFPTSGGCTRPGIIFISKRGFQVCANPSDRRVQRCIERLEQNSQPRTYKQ

murine CCL4 = target: T11, murine CCL4 (mouse, UniProt P14097 24-92); test: SPR, R17 on CM5 chip; t1/2
T11 construct: also called mCCL4
T11 sequence: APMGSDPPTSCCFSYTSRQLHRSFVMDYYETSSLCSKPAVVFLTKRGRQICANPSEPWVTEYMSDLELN

[11] = target: CCL2 (species not given); test: SPR, R17 variant on CM5 chip; column KD (nM), kinetic
murine CCL20 [12] = target: T5, murine CCL20; test: SPR, R17 on CM5 chip, chemokine injected; global 1:1 mass transport fit
murine CCL2 [13] = target: T7, murine CCL2; test: as above
murine CCL12 [14] = target: T8, murine CCL12; test: as above
murine CCL8 [15] = target: T9, murine CCL8; test: as above
CCL9 [16] = target: T10, CCL9; test: as above
human CCL2 = target: T12, human CCL2 (human, UniProt P13500 24-99); test: as above
T12 construct: also called hCCL2

[17] = target: CCL3 (species not given); test: SPR, R17 variant on CM5 chip; column KDeq (nM); ka, kd, KD printed n/a
murine CCL2 [18] = target: T7, murine CCL2
[19] = target: CCL2 (species not given); test: SPR, R17 variant on CM5 chip; column KDeq (nM)
human CCL5 [20] = target: T2, human CCL5; test: SPR, R17 amine-coupled to CM5 chip
murine CCL5 [21] = target: T3, murine CCL5; test: SPR, R17 amine-coupled to CM5 chip
[22] = target: T4, murine XCL1 (lymphotactin); test: SPR, R17 amine-coupled to CM5 chip

T7 sequence (P10148 24-148 limits assumed): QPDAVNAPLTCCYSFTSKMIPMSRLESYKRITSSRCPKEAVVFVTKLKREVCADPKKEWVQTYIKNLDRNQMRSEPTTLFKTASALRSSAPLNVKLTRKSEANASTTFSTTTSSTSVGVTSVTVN
T12 sequence (P13500 24-99 limits assumed): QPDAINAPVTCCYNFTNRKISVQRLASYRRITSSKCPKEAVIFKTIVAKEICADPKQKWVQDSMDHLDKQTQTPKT
T3 sequence (P30882 24-91 limits assumed): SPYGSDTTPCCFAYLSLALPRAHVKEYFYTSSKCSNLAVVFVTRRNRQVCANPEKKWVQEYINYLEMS

B1: R17 chemokine decoy receptor of Rodent herpesvirus Peru (RHVP), wild type, C-terminal 8-His fusion (receptor)
chain: GPVGEPVASEINEASKVSSRLLTQDILFRKDRQATISLPIKLPVEDIITQTCDKITYGPLKFLDLLEKETAVLPLSTDITCPACLGRAVLVGKWECPAHVAVNESDLTVFGPNKEEHVPQFVTVQQPSDGKMQRLFFAKFLGTEESLAVLRVPGPDGHLCIQEALIHFKELSGAGVCSLWKANDSREEGLEMKQVDCLETTVLENQTCIATTLSKKIYHRLYCGERLMTGGQVSTRVLLTALGFYKRQPYTFHRVPKGMVYVHLIDSGSEDYMEYSECEEVTPGRYEDKQISYTFYTDLFQTADGEPVLASVWGTSGLKDSAYESCAFVIPTKGRRKLVPRRIMSKCYPFRLTYHPSTMTVRLDVRVEKHHGATDQGFVFLKMESGTYSEGREYYLDRVLWGEDSSTNNVLQ
notes: not shown: C-terminal 8-His tag
Kd (murine CCL3 [1]): 1.4 nM | t1/2 (human CCL5 [2]): > 1000 s | t1/2 (murine CCL5 [3]): > 1000 s | t1/2 [4]: > 1000 s | t1/2 (murine CCL20 [5]): 32.2 s | t1/2 (murine CCL24): > 1000 s | t1/2 (murine CCL3 [6]): > 1000 s | t1/2 (murine CCL2 [7]): 34.6 s | t1/2 (murine CCL12 [8]): 6.9 s | t1/2 (murine CCL8 [9]): 6.9 s | t1/2 (CCL9 [10]): 6.8 s | t1/2 (murine CCL4): > 1000 s | Kd [11]: 6.7 nM | koff (murine CCL20 [12]): 0.031 s⁻¹ | kon (murine CCL20 [12]): 6.5e+06 M⁻¹ s⁻¹ | koff (murine CCL2 [13]): 0.02 s⁻¹ | kon (murine CCL2 [13]): 2e+06 M⁻¹ s⁻¹ | koff (murine CCL12 [14]): 0.01 s⁻¹ | kon (murine CCL12 [14]): 8.9e+06 M⁻¹ s⁻¹ | koff (murine CCL8 [15]): 0.1 s⁻¹ | kon (murine CCL8 [15]): 1.3e+06 M⁻¹ s⁻¹ | koff (CCL9 [16]): 0.01 s⁻¹ | kon (CCL9 [16]): 3.6e+06 M⁻¹ s⁻¹ | koff (human CCL2): 0.012 s⁻¹ | kon (human CCL2): 1e+06 M⁻¹ s⁻¹ | Kd [17]: 0.4 nM | Kd (murine CCL2 [18]): 12 nM | Kd [19]: 10 nM | dissociation time of the complex (human CCL5 [20]): > 10 min | dissociation time of the complex (murine CCL5 [21]): > 10 min | dissociation time of the complex [22]: > 10 min
